# Data taken from US20180339057A1 (Novo Nordisk, published 2018).
# T1: human MIC-1 receptor (hGFRAL, GDNF family receptor alpha like), full length (human, UniProt Q6UXV0 19-394)
# T1 sequence (looked up): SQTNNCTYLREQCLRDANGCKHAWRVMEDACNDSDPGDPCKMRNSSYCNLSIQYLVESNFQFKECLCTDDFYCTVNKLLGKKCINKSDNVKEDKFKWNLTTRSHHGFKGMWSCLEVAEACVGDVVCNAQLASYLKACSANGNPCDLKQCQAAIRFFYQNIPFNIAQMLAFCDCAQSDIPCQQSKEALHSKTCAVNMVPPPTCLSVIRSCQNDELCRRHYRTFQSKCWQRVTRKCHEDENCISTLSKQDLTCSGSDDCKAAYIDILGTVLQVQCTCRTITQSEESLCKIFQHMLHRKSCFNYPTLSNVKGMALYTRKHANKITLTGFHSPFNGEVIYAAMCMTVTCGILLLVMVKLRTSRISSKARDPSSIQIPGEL
# Experiments:
# [1] = target: T1, human MIC-1 receptor (hGFRAL, GDNF …); test: cell-based or functional assay
# [2] = target: T1, human MIC-1 receptor (hGFRAL, GDNF …); test: SPA: displacement of 50 pM human [125I]-MIC-1 from BHK21-hGFRAL-IRES-hRET cell membranes
# Procedure: Binding potencies of MIC-1 compounds were calculated by IC50 of displacement curves.
# BHK21-hGFRAL-IRES-hRET cells were cultured at +37° C. in a humidified atmosphere with 5% CO₂ in complete medium consisting of DMEM with high glucose and sodium pyrovate, heat inactivated 10% Fetal Bovine Serum, 1% Penicillin-Streptomycin, 1 mg/ml G418-Geneticin and 400 ug/ml Hygromycin. Cells were washed twice in ice cold Dulbecco's phosphate-buffered saline (DPBS) and detached mechanically by scraping, transferred in ice cold DPBS into conical centrifuge tubes and centrifuged for 5 min at 1500 rpm at +20° C. Cell pellet was resuspended in a total amount of 10 ml ice cold homogenization buffer A (50 mM Tris, 2.5 mM EDTA, adjust pH7.4 with one EDTA-free protease inhibitor cocktail tablet/50 ml) and homogenized for 20 seconds. The homogenate was centrifuged at 16000 rpm in 20 minutes at +4° C. The supernatant was discarded and the pellet was reconstituted in 10 ml homogenization buffer B (50 mM Tris, 320 mM Sucrose, adjust pH 7.4 with one EDTA-free protease inhibitor cocktail tablet/50 ml) and homogenized for 20 seconds and centrifuged at 16000 rpm in 20 minutes at +4° C. This procedure was repeated one more time. The supernatant was discarded and the pellet was reconstituted in 3 ml homogenization buffer B and homogenized for 10 seconds at low speed. Protein concentration was determined by standard Bradford method and 1.5 mg protein/tube was aliquoted to cryotubes and stored at −80° C. Binding assays were performed in white 96-well plates in a total volume of 200 μl per well. Wheat germ agglutinin SPA beads were reconstituted in assay buffer (50 mM Tris/HCl, 4.5 mM MgCl₂, 0.02% Tween 20 and 0.25% Ovalbumin pH 7.4) and mixed with membrane preparation to give a final concentration of 0.5 mg SPA beads and 10 μg total protein per well. […] The plate was sealed and incubated at +22° C. for 2 hours in a plate shaker set at 350 rpm and thereafter centrifuged at 1500 rpm for 10 minutes prior to reading of SPA bead light emission.
Binder,Luciferase + 0.1% HSA NNDK EC50 (pM) [1],Luciferase NNDK EC50 (pM) [1],IC50 [2]
"Compound 17 (ligand, Cys-29 (residue 4 of SEQ ID NO: 288): S{Beta}-[2-[2-[[2-[2-[2-[[2-[2-[2-[[(4S)-4-carboxy-4-(16-sulfohexadecanoylamino)butanoyl]amino]ethoxy]ethoxy]acetyl]amino]ethoxy]ethoxy]acetyl]amino]ethylamino]-2-oxoethyl]Cys (protractor of Example 10.6), homodimer, two protractors per dimer) SEPCTSGSETPGTSESATPESGPGTSTEPSEGARGDHCPLGPGRCCRLHTVRASLEDLGWADWVLSPREVQVTMCIGACPSQFRAANMHAQIKTSLHRLKPDTVPAPCCVPASYNPMVLIQKTDTGVSLQTYDDLLAKDCHCI",65 pM,43 pM,4.7 nM
"Compound 18 (ligand, Cys-29 (residue 4 of SEQ ID NO: 288): S{Beta}-[2-[[(5S)-5-carboxy-5-[[2-[2-[2-[[2-[2-[2-[4-[17-(1H-tetrazol-5-yl)heptadecanoylsulfamoyl]butanoylamino]ethoxy]ethoxy]acetyl]amino]ethoxy]ethoxy]acetyl]amino]pentyl]amino]-2-oxoethyl]Cys (protractor of Example 10.7), homodimer, two protractors per dimer) SEPCTSGSETPGTSESATPESGPGTSTEPSEGARGDHCPLGPGRCCRLHTVRASLEDLGWADWVLSPREVQVTMCIGACPSQFRAANMHAQIKTSLHRLKPDTVPAPCCVPASYNPMVLIQKTDTGVSLQTYDDLLAKDCHCI",67 pM,66 pM,1.3 nM
"Compound 01 (ligand, Cys-29 (residue 4 of SEQ ID NO: 288): S{Beta}-[2-[2-[[2-[2-[2-[[2-[2-[2-[[(4S)-4-carboxy-4-(17-carboxyheptadecanoylamino)butanoyl]amino]ethoxy]ethoxy]acetyl]amino]ethoxy]ethoxy]acetyl]amino]ethylamino]-2-oxoethyl]Cys (protractor of Example 10.4), homodimer, two protractors per dimer) SEPCTSGSETPGTSESATPESGPGTSTEPSEGARGDHCPLGPGRCCRLHTVRASLEDLGWADWVLSPREVQVTMCIGACPSQFRAANMHAQIKTSLHRLKPDTVPAPCCVPASYNPMVLIQKTDTGVSLQTYDDLLAKDCHCI",59 pM,72 pM,3.8 nM
"Compound 06 (ligand, Cys-25 (residue 8 of SEQ ID NO: 303): S{Beta}-[2-[2-[[2-[2-[2-[[2-[2-[2-[[(4S)-4-carboxy-4-(17-carboxyheptadecanoylamino)butanoyl]amino]ethoxy]ethoxy]acetyl]amino]ethoxy]ethoxy]acetyl]amino]ethylamino]-2-oxoethyl]Cys (protractor of Example 10.4), homodimer, two protractors per dimer) SEPATSGCETPGTSESATPESGPGTSTEPSEGARGDHCPLGPGRCCRLHTVRASLEDLGWADWVLSPREVQVTMCIGACPSQFRAANLHAQIKTSLHRLKPDTVPAPCCVPASYNPLVLIQKTDTGVSLQTYDDLLAKDCHCI",61 pM,81 pM,21 nM
"Compound 07 (ligand, Cys-15 (residue 18 of SEQ ID NO: 292): S{Beta}-[2-[2-[[2-[2-[2-[[2-[2-[2-[[(4S)-4-carboxy-4-(17-carboxyheptadecanoylamino)butanoyl]amino]ethoxy]ethoxy]acetyl]amino]ethoxy]ethoxy]acetyl]amino]ethylamino]-2-oxoethyl]Cys (protractor of Example 10.4), homodimer, two protractors per dimer) SEPATSGSETPGTSESACPESGPGTSTEPSEGARGDHCPLGPGRCCRLHTVRASLEDLGWADWVLSPREVQVTMCIGACPSQFRAANLHAQIKTSLHRLKPDTVPAPCCVPASYNPLVLIQKTDTGVSLQTYDDLLAKDCHCI",198 pM,121 pM,29 nM

# Further lines, results first:
Luciferase + 0.1% HSA NNDK EC50 (pM) [1],Luciferase NNDK EC50 (pM) [1],IC50 [2],Binder
115 pM,125 pM,29 nM,"SEPATSGSETPGTSESACPESGPGTSTEPSEG-MIC-1, des-N3, M57L, M86L (Cys mutation T(-15)C) (ligand, homodimer; no protractor) SEPATSGSETPGTSESACPESGPGTSTEPSEGARGDHCPLGPGRCCRLHTVRASLEDLGWADWVLSPREVQVTMCIGACPSQFRAANLHAQIKTSLHRLKPDTVPAPCCVPASYNPLVLIQKTDTGVSLQTYDDLLAKDCHCI"
26 pM,35 pM,36 nM,"SEPATSCSETPGTSESATPESGPGTSTEPSEG-MIC-1, des-N3, M57L, M86L (Cys mutation G(-26)C) (ligand, homodimer; no protractor) SEPATSCSETPGTSESATPESGPGTSTEPSEGARGDHCPLGPGRCCRLHTVRASLEDLGWADWVLSPREVQVTMCIGACPSQFRAANLHAQIKTSLHRLKPDTVPAPCCVPASYNPLVLIQKTDTGVSLQTYDDLLAKDCHCI"
34 pM,57 pM,43 nM,"SEPATSGCETPGTSESATPESGPGTSTEPSEG-MIC-1, des-N3, M57L, M86L (Cys mutation S(-25)C) (ligand, homodimer; no protractor) SEPATSGCETPGTSESATPESGPGTSTEPSEGARGDHCPLGPGRCCRLHTVRASLEDLGWADWVLSPREVQVTMCIGACPSQFRAANLHAQIKTSLHRLKPDTVPAPCCVPASYNPLVLIQKTDTGVSLQTYDDLLAKDCHCI"
45 pM,80 pM,10 nM,"SEPATCGSETPGTSESATPESGPGTSTEPSEG-MIC-1, des-N3 (Cys mutation S(-27)C) (ligand, homodimer; no protractor) SEPATCGSETPGTSESATPESGPGTSTEPSEGARGDHCPLGPGRCCRLHTVRASLEDLGWADWVLSPREVQVTMCIGACPSQFRAANMHAQIKTSLHRLKPDTVPAPCCVPASYNPMVLIQKTDTGVSLQTYDDLLAKDCHCI"
62 pM,45 pM,17 nM,"Compound 19 (ligand, Cys-29 (residue 4 of SEQ ID NO: 288): S{Beta}-[2-[[(1S)-1-carboxy-5-[[2-[2-[2-[[2-[2-[2-[[(4S)-4-carboxy-4-[10-(4-carboxyphenoxy)decanoylamino]butanoyl]amino]ethoxy]ethoxy]acetyl]amino]ethoxy]ethoxy]acetyl]amino]pentyl]amino]-2-oxoethyl]Cys (protractor of Example 10.8), homodimer, two protractors per dimer) SEPCTSGSETPGTSESATPESGPGTSTEPSEGARGDHCPLGPGRCCRLHTVRASLEDLGWADWVLSPREVQVTMCIGACPSQFRAANMHAQIKTSLHRLKPDTVPAPCCVPASYNPMVLIQKTDTGVSLQTYDDLLAKDCHCI"
